In patent US20160251438A1 one finds Ratio of EC50 (mutant / wt), residual binding on mutant by comparison to WT and ratio of EC50 (mutant vs WT) data, which are given here for two molecules.

Where only a bound is given, the exact number is not on record here.

The target of test [1] is GARP / TGF-β1 Y336Q complex (human) (UniProt Q14392). The experiment in a line: FACS titration on transfected 293T; EC50 mutant / EC50 WT [cont.) B].
For test [2] the target is unchanged. The experiment in a line: flow cytometry on transfected 293T cells, 5 ug/ml; grade of Loss of binding read by footnote 2.
Test [3] shares this target. The experiment in a line: flow cytometry titration on transfected 293T cells; grade of Reduced avidity read by footnote 3. Background: A flow cytometer gives signals particle by particle.
The target is the same in test [4]. The experiment in a line: FACS titration on transfected 293T; EC50 mutant / EC50 WT.

Sequence of GARP / TGF-β1 Y336Q complex (human) (Q14392 20-662, chain 1 of 2): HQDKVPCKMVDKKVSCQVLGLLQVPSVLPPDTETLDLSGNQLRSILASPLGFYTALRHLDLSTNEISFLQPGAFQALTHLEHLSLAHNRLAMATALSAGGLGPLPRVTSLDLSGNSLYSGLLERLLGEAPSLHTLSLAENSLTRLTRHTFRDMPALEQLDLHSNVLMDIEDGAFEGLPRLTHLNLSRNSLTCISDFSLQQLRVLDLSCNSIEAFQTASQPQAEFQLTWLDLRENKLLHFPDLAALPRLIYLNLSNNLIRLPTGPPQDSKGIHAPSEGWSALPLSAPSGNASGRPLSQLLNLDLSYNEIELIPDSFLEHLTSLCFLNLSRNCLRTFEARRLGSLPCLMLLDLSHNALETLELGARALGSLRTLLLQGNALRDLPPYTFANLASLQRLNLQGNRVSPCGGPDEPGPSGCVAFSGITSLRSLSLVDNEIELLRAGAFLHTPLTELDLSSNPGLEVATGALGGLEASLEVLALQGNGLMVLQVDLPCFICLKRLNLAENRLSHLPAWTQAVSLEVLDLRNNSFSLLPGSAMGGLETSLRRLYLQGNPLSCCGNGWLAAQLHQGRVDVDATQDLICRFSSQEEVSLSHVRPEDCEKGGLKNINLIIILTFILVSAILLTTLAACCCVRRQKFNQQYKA
Sequence of GARP / TGF-β1 Y336Q complex (human) (P01137 30-390 Y336Q, chain 2 of 2, further chain): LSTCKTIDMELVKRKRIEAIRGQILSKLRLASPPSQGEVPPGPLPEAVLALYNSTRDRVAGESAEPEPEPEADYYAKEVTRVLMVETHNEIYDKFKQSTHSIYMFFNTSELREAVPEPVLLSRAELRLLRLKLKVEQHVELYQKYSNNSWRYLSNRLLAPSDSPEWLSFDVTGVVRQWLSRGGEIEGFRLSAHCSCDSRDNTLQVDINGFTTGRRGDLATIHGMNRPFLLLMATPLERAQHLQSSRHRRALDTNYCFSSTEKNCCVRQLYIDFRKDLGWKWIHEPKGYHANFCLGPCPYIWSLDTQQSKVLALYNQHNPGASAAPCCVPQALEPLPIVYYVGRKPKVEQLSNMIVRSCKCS

B1: LHG-10 (antibody, human IgG1, V domains shown)
VH: EVQLVQPGAELRNSGASVKVSCKASGYRFTSYYIDWVRQAPGQGLEWMGRIDPEDGGTKYAQKFQGRVTFTADTSTSTAYVELSSLRSEDTAVYYCARNEWETVVVGDLMYEYEYWGQGTQVTVSS
VL: DIQMTQSPTSLSASLGDRVTITCQASQSISSYLAWYQQKPGQAPKLLIYGASRLQTGVPSRFSGSGSGTSFTLTISGLEAEDAGTYYCQQYDSLPVTFGQGTKVELK
For B1, the Ratio of EC50 (mutant / wt) in test [1] amounted to 1.1. In test [2], this molecule registered a residual binding on mutant by comparison to WT of more than 50%. The ratio of EC50 (mutant vs WT) in test [3] is less than 2.

B2: MHGARP8 (antibody, V domains shown)
VH: QVQLKESGPGLVAPSQSLSITCTVSGFSLTGYGINWVRQPPGKGLEWLGMIWSDGSTDYNSVLTSRLRISKDNSNSQVFLKMNSLQVDDTARYYCARDRNYYDYDGAMDYWGQGTSVTVSS
VL: DIQVTQSSSYLSVSLGDRVTITCKASDHIKNWLAWYQQKPGIAPRLLVSGATSLEAGVPSRFSGSGSGKNFTLSITSLQTEDVATYYCQQYWSTPWTFGGGTTLEIR
With B2, the Ratio of EC50 (mutant / wt) in test [4] amounted to 0.9. This molecule gave a residual binding on mutant by comparison to WT in test [2] of more than 50%.
